From the supplement of paper PMC9112550, “Optimization of the antimicrobial peptide Bac7 by deep mutational scanning” (BMC Biology, 2022)

Test system: Escherichia coli TOP10
Test: shrunken log2 fold change of peptide-encoding DNA abundance (4.5 h post-induction vs induction); higher = less antimicrobial activity (less host growth inhibition)
Details: time post-induction: 4.5 h; library: site-saturation at positions 5, 18, 19, 20
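Note: peptides expressed intracellularly from a pBAD plasmid library in pooled LB shake-flask culture, induced with 0.3% L-arabinose, DNA abundance read by NGS, three biological replicates, DESeq2 with apeglm shrinkage.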

| Sequence | shrunken log2 fold change |
| --- | --- |
| RRIRWRPPRLPRPRPRPAWEPRP | 0.534 |
| RRIRERPPRLPRPRPRPQDWPRP | -0.206 |
| RRIRGRPPRLPRPRPRPDQQPRP | 0.074 |
| RRIRVRPPRLPRPRPRPRVCPRP | 0.165 |
| RRIRVRPPRLPRPRPRPTTLPRP | -0.111 |
| RRIRCRPPRLPRPRPRPAEPPRP | 0.368 |
| RRIRLRPPRLPRPRPRPTPSPRP | 0.552 |
| RRIRMRPPRLPRPRPRPCWSPRP | 0.349 |
| RRIRPRPPRLPRPRPRPTHLPRP | 0.23 |
| RRIRSRPPRLPRPRPRPRDTPRP | 0.0657 |
| RRIRTRPPRLPRPRPRPLMCPRP | -0.151 |
| RRIRERPPRLPRPRPRPLGYPRP | -0.39 |
| RRIRDRPPRLPRPRPRPNFNPRP | -0.307 |
| RRIRRRPPRLPRPRPRPMGCPRP | -0.0336 |
| RRIRMRPPRLPRPRPRPWTHPRP | -0.136 |
| RRIRHRPPRLPRPRPRPVADPRP | -0.209 |
| RRIRSRPPRLPRPRPRPDMWPRP | -0.409 |
| RRIRFRPPRLPRPRPRPYWMPRP | -0.371 |
| RRIRARPPRLPRPRPRPYRKPRP | -0.502 |
| RRIRHRPPRLPRPRPRPGFYPRP | -0.363 |
| RRIRWRPPRLPRPRPRPVPFPRP | 0.122 |
| RRIRVRPPRLPRPRPRPNYMPRP | -0.923 |

| Sequence | shrunken log2 fold change |
| --- | --- |
| RRIRKRPPRLPRPRPRPYKKPRP | -0.201 |
| RRIRGRPPRLPRPRPRPFAIPRP | -0.0466 |
| RRIRCRPPRLPRPRPRPWYGPRP | -0.49 |
| RRIRRRPPRLPRPRPRPIDWPRP | 0.122 |
| RRIRLRPPRLPRPRPRPGKVPRP | -0.0116 |
| RRIRWRPPRLPRPRPRPMHHPRP | -0.261 |
| RRIRVRPPRLPRPRPRPQTIPRP | -0.127 |
| RRIRHRPPRLPRPRPRPWVWPRP | 0.296 |
| RRIRVRPPRLPRPRPRPMWTPRP | -0.0192 |
| RRIRLRPPRLPRPRPRPSMVPRP | -0.665 |
| RRIRGRPPRLPRPRPRPLAYPRP | 0.721 |
| RRIRCRPPRLPRPRPRPDVQPRP | 0.0161 |
| RRIRSRPPRLPRPRPRPWHEPRP | -0.103 |
| RRIRVRPPRLPRPRPRPARQPRP | 0.365 |
| RRIRMRPPRLPRPRPRPPYWPRP | 0.37 |
| RRIRIRPPRLPRPRPRPGDPPRP | -0.0811 |
| RRIRERPPRLPRPRPRPFDLPRP | -0.504 |
| RRIRARPPRLPRPRPRPHVYPRP | -0.0492 |
| RRIRMRPPRLPRPRPRPDPSPRP | -0.0334 |
| RRIRKRPPRLPRPRPRPNSFPRP | -0.234 |
| RRIRGRPPRLPRPRPRPCTAPRP | 0.875 |
| RRIRIRPPRLPRPRPRPGQRPRP | -0.0709 |

| Sequence | shrunken log2 fold change |
| --- | --- |
| RRIRHRPPRLPRPRPRPMEAPRP | -0.0935 |
| RRIRSRPPRLPRPRPRPMHFPRP | 0.0521 |
| RRIRARPPRLPRPRPRPQSSPRP | -0.0298 |
| RRIRHRPPRLPRPRPRPCQQPRP | -0.0541 |
| RRIRFRPPRLPRPRPRPSIYPRP | -0.615 |
| RRIRSRPPRLPRPRPRPTDLPRP | -0.464 |
| RRIRDRPPRLPRPRPRPITEPRP | -0.0351 |
| RRIRKRPPRLPRPRPRPPQFPRP | 0.127 |
| RRIRDRPPRLPRPRPRPRAKPRP | 0.208 |
| RRIRGRPPRLPRPRPRPWMGPRP | -0.0634 |
| RRIRGRPPRLPRPRPRPVVEPRP | 0.937 |
| RRIRARPPRLPRPRPRPFAPPRP | 0.61 |
| RRIRFRPPRLPRPRPRPKPRPRP | 0.886 |
| RRIRKRPPRLPRPRPRPNVCPRP | -0.144 |
| RRIRPRPPRLPRPRPRPMLFPRP | -0.0744 |
| RRIRWRPPRLPRPRPRPPGGPRP | 0.669 |
| RRIRQRPPRLPRPRPRPAKDPRP | 0.0171 |
| RRIRLRPPRLPRPRPRPGTQPRP | -0.0907 |
| RRIRVRPPRLPRPRPRPVQSPRP | -0.104 |
| RRIRYRPPRLPRPRPRPTVQPRP | 0.028 |
| RRIRMRPPRLPRPRPRPKCHPRP | 0.335 |
| RRIRQRPPRLPRPRPRPRENPRP | 0.0469 |

| Sequence | shrunken log2 fold change |
| --- | --- |
| RRIRCRPPRLPRPRPRPKIPPRP | -0.284 |
| RRIRHRPPRLPRPRPRPGQLPRP | 0.174 |
| RRIRPRPPRLPRPRPRPRFVPRP | 0.109 |
| RRIRWRPPRLPRPRPRPMHIPRP | 0.0409 |
| RRIRNRPPRLPRPRPRPWGYPRP | -0.123 |
| RRIRRRPPRLPRPRPRPVEFPRP | 0.0107 |
| RRIRNRPPRLPRPRPRPYSAPRP | -1.37 |
| RRIRDRPPRLPRPRPRPWNRPRP | -0.339 |
| RRIRWRPPRLPRPRPRPCTIPRP | -0.138 |
| RRIRVRPPRLPRPRPRPTYLPRP | 0.00624 |
| RRIRTRPPRLPRPRPRPNFEPRP | -0.101 |
| RRIRDRPPRLPRPRPRPQNMPRP | -0.574 |
| RRIRVRPPRLPRPRPRPCYWPRP | -0.0621 |
| RRIRQRPPRLPRPRPRPIWQPRP | -0.049 |
| RRIRIRPPRLPRPRPRPTMIPRP | -0.224 |
| RRIRWRPPRLPRPRPRPAMWPRP | 0.433 |
| RRIRPRPPRLPRPRPRPMFEPRP | 0.0626 |
| RRIRRRPPRLPRPRPRPVITPRP | -0.554 |
| RRIRLRPPRLPRPRPRPDTFPRP | 0.0621 |
| RRIRHRPPRLPRPRPRPMRLPRP | 0.0431 |
| RRIRQRPPRLPRPRPRPMLYPRP | -0.282 |
| RRIRVRPPRLPRPRPRPYFFPRP | -0.512 |

| Sequence | shrunken log2 fold change |
| --- | --- |
| RRIRCRPPRLPRPRPRPWHLPRP | -0.221 |
| RRIRERPPRLPRPRPRPNPLPRP | -0.0696 |
| RRIRPRPPRLPRPRPRPFTGPRP | -0.0818 |
| RRIRPRPPRLPRPRPRPCGFPRP | 0.183 |
| RRIRVRPPRLPRPRPRPCCFPRP | -0.00712 |
| RRIRMRPPRLPRPRPRPPGGPRP | 1.15 |
| RRIRRRPPRLPRPRPRPEPDPRP | 0.879 |
| RRIRIRPPRLPRPRPRPWIMPRP | -0.735 |
| RRIRDRPPRLPRPRPRPHSLPRP | -0.341 |
| RRIRRRPPRLPRPRPRPEYAPRP | 0.0407 |
| RRIRMRPPRLPRPRPRPFTMPRP | -0.55 |
| RRIRFRPPRLPRPRPRPNDTPRP | -0.179 |
| RRIRCRPPRLPRPRPRPWCSPRP | -0.321 |
| RRIRARPPRLPRPRPRPQWTPRP | 0.164 |
| RRIRYRPPRLPRPRPRPLNKPRP | -0.449 |
| RRIRYRPPRLPRPRPRPLMSPRP | -0.0164 |
| RRIRNRPPRLPRPRPRPGGGPRP | 0.723 |
| RRIRSRPPRLPRPRPRPLGLPRP | 0.204 |
| RRIRMRPPRLPRPRPRPWAVPRP | 0.396 |
| RRIRERPPRLPRPRPRPCMMPRP | -0.058 |
| RRIRGRPPRLPRPRPRPYKDPRP | -0.322 |
